Laboratory results taken from patent US20180305438A1 (ACCELERON PHARMA, published 2018).

Experiments:
Assay in all cases: Biacore (SPR)
[1] = biological target: hBMP2 (human, UniProt P12643 283-396)
[2] = biological target: T1, hBMP4 (human, UniProt P12644 293-408)
T1 sequence (looked up): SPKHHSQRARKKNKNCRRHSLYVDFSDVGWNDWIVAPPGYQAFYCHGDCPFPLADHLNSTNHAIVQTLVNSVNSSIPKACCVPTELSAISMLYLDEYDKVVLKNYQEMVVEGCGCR

[3] = biological target: T2, hBMP7 (human, UniProt P18075 293-431)
T2 sequence (looked up): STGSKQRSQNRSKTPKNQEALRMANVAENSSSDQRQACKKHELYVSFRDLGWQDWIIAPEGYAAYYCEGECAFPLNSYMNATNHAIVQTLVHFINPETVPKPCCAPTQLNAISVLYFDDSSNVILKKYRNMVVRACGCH

Chain of hBMP2 (P12643 283-396 limits assumed): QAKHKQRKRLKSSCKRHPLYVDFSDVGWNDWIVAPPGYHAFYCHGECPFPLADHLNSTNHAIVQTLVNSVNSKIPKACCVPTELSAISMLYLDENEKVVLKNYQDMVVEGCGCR

B1: mALK3(24-152)-mFc derived from HEK 293 cells (Fc fusion)
chain: GAQNLDSMLHGTGMKSDLDQKKPENGVTLAPEDTLPFLKCYCSGHCPDDAINNTCITNGHCFAIIEEDDQGETTLTSGCMKYEGSDFQCKDSPKAQLRRTIECCRTNLCNQYLQPTLPPVVIGPFFDGSIRTGGGEPRVPITQNPCPPLKECPPCAAPDLLGGPSVFIFPPKIKDVLMISLSPMVTCVVVDVSEDDPDVQISWFVNNVEVHTAQTQTHREDYNSTLRVVSALPIQHQDWMSGKEFKCKVNNRALPSPIEKTISKPRGPVRAPQVYVLPPPAEEMTKKEFSLTCMITGFLPAEIAVDWTSNGRTEQNYKNTATVLDSDGSYFMYSKLRVQKSTWERGSLFACSVVHEGLHNHLTTKTISRSLGK
notes: The Gly-Ala at 23-24 may also be absent, since the main species of the human construct starts at Gln; also called mALK3-mFc
- Kd [1]: 2.43 nM
- Kd [2]: 0.947 nM
- binding result [3]: binds
